PMC1931443, “Vertebrate DM domain proteins bind similar DNA sequences and can heterodimerize on DNA” (BMC Molecular Biology, 2007)

How the values were obtained:
[1] = biological target: the molecule itself; assay: native gel or EMSA; one in vitro translated DMRT protein (4 ul translation mix) with 32P-labelled dsDNA probe bearing the DMRT1 consensus site; monomer and dimer complexes seen on DNA; 10 mM Tris-HCl pH 7.9, 100 mM KCl, 10% glycerol, 5 mM MgCl2, 1 mM spermidine, 0.075% Triton-X-100, 1 mM DTT; on ice 10 min; 5% native gel at 4 C
[2] = biological target: the molecule itself; assay: native gel or EMSA; DMRT1 alone or together with a Myc-tagged DMRT protein (in vitro translated) on labelled DMRT1 consensus probe; composition of the DNA/protein complexes tested by supershift with DMRT1 antibody or anti-Myc 9E10; dimers seen on DNA

B1: DMRT1 (mouse), full-length, amino-terminal Myc epitope tag, in vitro translated (natural protein)
chain: not shown
notes: DMRT1, mouse, full-length protein made by in vitro transcription/translation; also called in vitro translated DMRT1; source: in vitro translated (TNT Quick Coupled transcription/translation system, Promega, with 20 uM ZnSO4), not purified
- stoichiometry N [1]: 2

B2: DMRT3 (mouse), Myc epitope tagged, in vitro translated (natural protein, UniProt Q80WT2 1-476, looked up)
chain: MNGYGSPYLYMGGPVSQPPRAPLQRTPKCARCRNHGVLSWLKGHKRYCRFKDCTCEKCILIIERQRVMAAQVALRRQQANESLESLIPDSLRALPGPPPPGDAAATAATASQSSPASQASQPPAPPRPTAELAAAAALRWVAEPQPGTLPAQLAKPDLTEERVGDSSSTDNTAEAFSDKDTDQRSSPDVVKSKNCFTPESPEIVSVDEGGYAVQKNGGNPESCPDSPKYHAEQSHLLIEGPSGTVSLPFSLKANRPPLEVLKKIFPNQKPTVLELILKGCGGDLVSAVEVLLSSRSSAAGAERTAEESLVLPSSGHIFEHTLGSYPISSSKWSVGSAFRVPDTLRFSADSSNVVPNPLAVPLQHPFPQPPRYPLMLRNTLARNQSSPFLPNDVTLWNTMTLQQQYQLRSQYVSPFPSNSTSVFRSSPVLSSRTTEDPRISIPDDGCPIVTKQSIYTEDDYDERSDSSDSRILNTSS
notes: DMRT3, mouse; also called tagged DMRT3; source: in vitro translated (TNT Quick Coupled transcription/translation system, Promega, with 20 uM ZnSO4), not purified
- stoichiometry N [1]: 2

B3: DMRT1 of the heterodimerization gel shifts (complex not affected by the 9E10 anti-Myc antibody) (natural protein)
chain: not shown
notes: DMRT1, mouse; the construct used in this experiment is not described; The methods describe only a Myc-tagged DMRT1 construct; source: in vitro translated, not purified
- stoichiometry N [2]: 2

B4: DMRT5 (mouse), Myc epitope tagged, in vitro translated (natural protein, UniProt A2A9A2 1-531, looked up)
chain: MELRSELPSVPGAATAAATATGPPVASVASVAAAAAAAASLPVSVAGGLLRAPPLLLRAAEKYPRTPKCARCRNHGVVSALKGHKRYCRWKDCLCAKCTLIAERQRVMAAQVALRRQQAQEENEARELQLLYGTAEGLALAAANGIIPPRPAYEVFGSVCATDGGGPGAGAPAGSAGGAGGAEAKLQKFDLFPKTLLQAGRPDSPQPPPGKPLSPDGADSGPRTSSPEVRPGSGSENGDGESFSGSPLARASKEAGGSCPGSAGAGGGGEEDSPGSSSPLGSESGSEADKEEAEAAPTPGLGGGPGPRQRTPLDILTRVFPGHRRGVLELVLQGCGGDVVQAIEQVLNHHRGGLAAGLGPAAPLEKAAVSAAVEDAWPGRVEAAAAGGAGLPAPLQTGPTAPPHHRPLLAGAMTPGALGSLSSRSAFSPLQPNASHFGADAGAYPLGAPLGLSPLRLAYSAAAAHSRGLAFMAPYSTAGLVPTLGFRPPMDYAFSDLMRDRSAAAAAAVHKEPGYGGGLYGPMVNGTPEKQ
notes: DMRT5, mouse; source: in vitro translated (TNT Quick Coupled transcription/translation system, Promega, with 20 uM ZnSO4), not purified
- stoichiometry N [1]: 2
